Reference: patent US20060122105A1, “Method of improing the growth performance of an animal” (priority 2001, published 2006)

Tests used:
Format in all cases: in vivo
[1] = test system: Actinobacillus pleuropneumoniae (App); test: App challenge of pigs, prophylactic recombinant IL-1ra, plasmid IL-1ra or flunix (Example 5); design: improvements in weight gain over saline controls / reduction in weight gain compared to saline controls / reduction in clinical symptoms compared to saline / reduction of pleurisy compared to saline treated controls / reduction in affected lung mass compared to saline treated controls: concentration or dose not given beside the values
Method: Male pigs, with a mean starting weight of 52 kg, were allocated to 5 treatment groups as outlined in Table 6. Pigs were housed in group pens, with each pen containing a replicate from each of the treatment groups. The starting weights of each treatment group and each pen were equal prior to the start of the trial. Pigs were provided with pelleted feed and water ad libitum.
Recombinant IL-1ra and saline-were administered as 1 ml doses, given subcutaneously behind the ear. Plasmids were administered in 1 ml doses, given intramuscularly in the hind-leg. Flunix was administered as a 2 ml dose according to the manufacturer's instructions, and delivered intramuscularly in the neck. The timetable of administration is outlined in Table 6 below.
Prior to challenge, pigs were treated with recombinant cytokines, flunix or plasmids as described Table 7. Pigs were anaesthetised and infected intratracheally with 7.5×10^5 pfu App on day 0.
Blood was sampled from pigs by venipuncture at 0, 24 h and 14 days post-challenge. Blood was assayed for immunological parameters as previously described. Pigs were weighed weekly from delivery of plasmids and for 2 weeks after challenge.
At the conclusion of the trial, pigs were euthanased and the lungs removed for post-mortem examination. Lungs were scored for pleurisy from 0-5 (FIGS. 39 and 40) and the degree of pleuropneumonia was determined by weighing affected lung and expressed as a percentage of total lung weight (FIGS. 41 and 42). Pigs treated with flunix and IL-1ra had less pleurisy than the saline controls (FIG. 39).

[2] = test system: Brachyspira (Serpulina) hyodysenteriae; test: Swine dysentery challenge of weaner pigs, prophylactic treatment (Example 4); settings: for reduction in spirochaete culture scores at post-mortem compared to saline: FIG. 25
Method: Male pigs with a mean starting weight of 6.5 kg, were allocated to treatment groups consisting of eight pigs. Pigs were housed in group pens, with each pen containing a replicate from each of the treatment groups. One group of 8 pigs was housed in a separate room and left uninfected to act as untreated controls. Pigs were provided with pelleted feed and water ad libitum.
Prior to swine dysentery challenge, pigs were treated with 200 μg recombinant IL-1ra or 1 ml saline via intramuscular injection. Lincocin was delivered as a 2 ml intramuscular injection according to the manufacturer's instructions. Cytokines, antibiotics and challenges were performed at intervals described in the experimental protocol outlined in Table 5. Pigs were infected with Brachyspira hyodysenteriae at day 0, day 1 and day 2, given as an oral bolus of 120 ml of spirochaete culture in log phase of growth, containing approximately 10^8 cells.
Faecal swabs and blood samples were taken from each pig at intervals described in Table 5. Faecal swabs were cultured for the presence of spirochaetes. Blood samples were assayed for immunological parameters as described in Example 3 above. Pigs were weighed at weekly intervals throughout the experiment, which was terminated by euthanasia on days 19 and 20 after the initial challenge. At post-mortem, swabs from areas of the hindgut were cultured for the presence of spirochaetes, and the gross pathological condition of the gastro-intestinal tissue noted.

[3] = Growth performance of weaner pigs treated with IL-1ra or saline, with or without in-feed antibiotics (Example 1); settings: for warm carcass weight: FIG. 6; for rate of gain over the grower phase: D79 and D93, FIG. 3
Method: Recombinant porcine. IL-1ra was expressed in E. coli and purified using a polyhis tag system. IL-1ra was tested for biological activity in a bioassay prior to the start of the experiment.
Male weaner pigs (28 days old) were allocated to treatment groups of 20 as described in Table 1. The mean weight for each treatment group was equal, with equal variance. Pigs were housed in group pens of 20, with 2 pens provided with medicated water and feed as per current industry standards, while 2 pens were given unmedicated water and feed. Pigs were injected twice weekly with recombinant IL-1ra or saline (control), in a volume of 1 ml, for the duration of the weaner phase (42 days), as described in Table 2.
Upon commencement of the weaner phase (day 0) and upon completion of the weaner phase (day 42), pigs were […]

B1: IL-1ra: Recombinant porcine IL-1ra expressed in E. coli and purified using a polyhis tag system (protein, UniProt Q29056 26-177, looked up)
Interleukin-1 receptor …: HPLGKRPCRMQAFRIWDVNQKTFYLRNNQLVAGYLQGPNTKLEEKIDVVPVEPHFVFLGIHGGKLCLSCVKSGDEMKLQLDAVNITDLRKNSEQDKRFTFIRSDSGPTTSFESAACPGWFLCTALEADQPVGLTNTPKAAVKVTKFYFQQDQ
modifications: polyhistidine tag
notes: Recombinant porcine IL-1ra expressed in E. coli and purified using a polyhis tag system
In the case of B1, the “improvements in weight gain over saline controls” value ([1]; 14d App challenge, FIG. 33) is reported as 53.8%, the “daily rate of gain” value ([1]; 14d challenge with App, FIG. 32) is reported as 667 g per day and the “reduction in clinical symptoms compared to saline” value ([1]; FIG. 38) is reported as 72%. For the same molecule, the “heavier at the termination of the experiment than saline treated peers” value ([1]; after 2 weeks of challenge) was 4 kg, the “improvement in growth vs saline” value ([1]; after 2 weeks of challenge) was 69% and the “production of IL-6 (mRNA in peripheral blood)” value ([1]; after App challenge, compared with saline treated controls, FIG. 36) was “reduce the production”. For the same molecule, the “growth during the week of challenge” value ([1]; first week after App challenge, FIG. 30) was “positive growth”, the “clinical signs of App disease (mean clinical scores over 30 visits)” value ([1]; first week of challenge, vs saline-treated controls, p<0.05, FIG. 37) was “significantly reduced clinical signs of disease” and the “reduction in affected lung mass compared to saline treated controls” value ([1]; percentage of lung affected by App lesions, FIG. 42) was 73.9%. The “reduction of pleurisy compared to saline treated controls” value ([1]; pleurisy score 0-5 at necropsy, FIG. 40) was 22%, the “reduction in spirochaete culture scores at post-mortem compared to saline” value (shortened to “reduction in spirochaete culture scores”) ([2]; anterior colon) was 15.8% and the “reduction in spirochaete culture scores” value ([2]; faecal spirochaetes) was 42.1%. For the same molecule, the “reduction in spirochaete culture scores” value ([2]; posterior colon) was 47.1%, the “net reduction in spirochaetes throughout the GIT” value ([2]; vs saline) was 27% and the “faecal condition at post-mortem (clinical signs)” value ([2]; vs saline treated controls, FIG. 26) was “fewer signs of dysentery-affected faeces”. The “production of the pro-inflammatory cytokines TNF, IL-8 and IL-1 (mRNA in peripheral blood)” value ([2]; vs saline treated controls, FIGS. 27, 28 and 29) was “reduce the production”, the “rate of gain over weeks 5 and 6 of the weaner phase” value ([3]; 200 μg IL-1ra twice weekly, both medicated and non-medicated feeding regimes, FIG. 2) was “outperforming saline treated pigs” and the “rate of gain over the first 4 weeks of the weaner phase” value ([3]; 200 μg IL-1ra twice weekly, vs saline controls, FIG. 1) was “performed as well as saline controls”. For the same molecule, the warm carcass weight ([3]; IL-1ra in absence of antibiotics) was “equal to that obtained by pigs fed antibiotics and treated with saline”, the warm carcass weight ([3]; IL-1ra in presence of antibiotics) was “greater than that of their saline-treated counterparts” and the “average weight at slaughter, heavier than pigs treated with saline and provided with in-feed antibiotics” value ([3]; IL-1ra in weaner phase in absence of in-feed antibiotics, FIG. 5) was 0.7 kg. The “rate of gain over the grower phase” value ([3]; IL-1ra in weaner phase with medicated diet) was “highest rate of gain”, the “rate of gain over the grower phase” value ([3]; IL-1ra in weaner phase without in-feed medication) was “grow as quickly as pigs treated with saline and provided with in-feed medication” and the “rate of gain over the finisher phase” value ([3]; IL-1ra in weaner phase without medicated diet, FIG. 4) was “highest rate of gain of all groups”. For the same molecule, the “feed conversion ratio during the finisher phase” value ([3]; day 93-day 133, treatment during weaner phase, IL-1ra in absence of in-feed antibiotics, FIG. 7) was 2.49.
